B1: TPR t1 (parent)
chain: GACCAAUCUGCCCUCAGAGCUCGAGAACAUCUUCGGAUGCAGAGGAGGCAGGCUUCGGUGGCGCGAUAGCGCCAACGUCCUCAACCUCCAAUGCAUCCCACCACAUGAUGAUGCCUGAAGAGCCUUGGUUUUUUG

Variants of: B1
Experiment: polymerase ribozyme fitness, log enrichment relative to wild type (log ratio); higher = more active; in vitro selection for triplet polymerase activity
Method in brief: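 A single round of triplicate in vitro selection, including frozen incubation at −7 °C, was applied to PCR-built, transcribed mutant libraries of each subunit of a heterodimeric triplet polymerase ribozyme. Illumina sequencing of input and output libraries retained genotypes with ≥10 input reads and ≥1 read per output. Fitness is the base-2 logarithm of genotype enrichment divided by wild-type enrichment, from inverse-variance-weighted replicate averages.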

| Variant | polymerase ribozyme fitness (log ratio) |
| --- | --- |
| A27U G39C G120U | -2.78 |
| A29G A37U G61U | -1.98 |
| U30C A37C | -3.86 |
| A29U C76G C86A | -2.31 |
| C28G G57C G63C C73U A83C C123A | -5.12 |
| C31G G36A G52A C56U C115G | -7.46 |
| C31G C88G G110A U126G | -6.03 |
| U30A G39U C101A A111U A119G C123G | -6.64 |
| A29U C53G U81A A121U U132A | -1.75 |
| A27U C115U | -3.71 |
| C28A A43U C86G | -5.44 |
| A27U C72U | -3.48 |
| C31A G44U C101U C124G | -5.62 |
| A29U C114G | -4.29 |
| A29C G71C A95U C124U | -4.83 |
| A29C G36U G69C G77A C97U A105U U106A | -5.4 |
| C31G A37U C97A U116G | -7.62 |
| C28A C79A A111C U112G | -6.04 |
| C28G G110A G128U | -2.89 |
| C28U C56U C73G U78C C101A | -5.44 |
| C28A C70G C79G U130C | -6.51 |

| Variant | polymerase ribozyme fitness (log ratio) |
| --- | --- |
| C28U C64U U87A | -1.96 |
| C31A C88G | -4.98 |
| C28U C70U | -2.13 |
| C28U C123G | -0.0468 |
| C28G A46U | -3.8 |
| A27U G122A | -4.26 |
| U30G A43U G45U G47A C49A C73A U106A A119G | -3.78 |
| A27U C49A C56U C62U U87G G113C | -6.58 |
| C28A U112A | -1.21 |
| C31U A50U C53U C72U G93A C124U | -7.15 |
| A29U C40U G44U C85U C89A C94G | -4.32 |
| C28U G93A C101U | -3.39 |
| C28U G45A C70U C124U | -2.79 |
| A29U G69U G120U | -0.561 |
| C28A A50G C62U G65U G69U U112A | -3.65 |
| A29U C70U | -2.15 |
| A27U G63U U96G G127C | -6.08 |
| A29U G52U U106C G117A A118U C124G | -1.91 |
| C28U | -1.69 |
| C28G | -2.31 |
| C28A | -3.83 |

| Variant | polymerase ribozyme fitness (log ratio) |
| --- | --- |
| A27U U54A | -2.8 |
| A29U C49U C64U U106A C115A U132C | -2.46 |
| A29U G69U | -0.63 |
| A29U C62U C89G | -3 |
| A29G C49G C85G | -2.46 |
| C28U C53U U92C U106A U133A | -3.09 |
| C31G C124G | -6.98 |
| A29U A111C C115G U125G U133A | -4.49 |
| U30G C64U A121G | -4 |
| A27U G44U C56A U133A | -4.31 |
| C28U A29G | -5.97 |
| C28G U38A C86U | -5.02 |
| C31A A111C | -3.67 |
| C28U U55C G71A | -3.34 |
| C28U C40A C123A | -3.16 |
| U30C U78A U96A | -5.15 |
| C28U C124U | -0.485 |
| C28U C124A | 0.0271 |
| A29U G69C C98U G113C | -4.71 |
| A29U C72U A84C U87C U112C | -1.31 |
| C28A A75G G120U U129G | -6.26 |

| Variant | polymerase ribozyme fitness (log ratio) |
| --- | --- |
| A29G U87C G113U A121C | -3.46 |
| A29G G35C C98G | -3.4 |
| A27U G52A C88U U96A | -4.5 |
| C31G C99G | -6.63 |
| C28U A108G | -4.76 |
| C28U C82A C114U | -3.98 |
| A29G C40A C99G A111G | -7.69 |
| A29U U38G C88U | -3.31 |
| A27U G60U | -3.37 |
| U30C U78G | -3.78 |
| C28G C72G | -2.2 |
| A29G C86A U112A C123G | 0.207 |
| C28G A95U U125A | -3.63 |
| A29G G60A C86U | -2.06 |
| A29U G77C U112G G127C | -5.41 |
| A29U G48C G113C U129A | -4.71 |
| A29G A50G C99G A105G C124A | -7.1 |
| U30C U78A U106C A121U | -2.15 |
| C28G G39U C53U G63C C124A | -3.26 |
| A29U A46C G117C | -4.13 |

From the RNAGym collection of RNA variant scans (doi:10.1073/pnas.2313332121)
